B1: TCN-556 (5089_K12) (antibody, V domains shown)
VH: QVQLVQSGAEVKKPGASVKVSCKASGYTFIGYDMHWVRQAPGQGLEWMGWINAKRGGTNYAQKFQGRVTMTRDTSISTAYMELNSLRSDDTAVYYCARGVGSRTTIFGVLNPEFDYWGQGTLVTVSS
VL: QSALTQPPSASGSPGQSVTISCTGSSSDVGGYDYVSWYQQHPGKAPKLLIYEVTKRPSGVPDRFSGSKSGNTASLTVSGLQAEDEADYYCSSYAGNYNHVFGPGTKVTVL
B2: TCN-560 (5084_P10) (antibody, V domains shown)
VH: EVQLVESGGGLVQPGGSLRLSCAASGFIFRNYWMSWVRQAPGKGLEWVANIKQDGREKYYVDSLRGRVNISRDNAENSLYLHMNSLRVEDTAVYFCARARMVVVTGDGFDVWGHGTMVTVSS
VL: DIQMTQSPSSLSASVGDRVTITCRASQNIKRYFNWYQQKPGKAPKLLIYAASNLENGVPSRFSGSGSGTDFTLTISSLQPEDFATYYCQQSFSKSWTFGQGTNVDIK

Molecular target: recombinant soluble homotrimeric HA, A/common magpie/Hong Kong/5052/07 (H5N1) (influenza A virus A/common magpie/Hong …)
Assay: microarray, trimeric HA, transfection supernatant

Binder | Trimeric HA Binding RLU [RLU]
B1 | 20100
B2 | 30500

Reference: US20150104459A1 (published 2015)
